The source of these data is US20240002531A1 (ONO PHARMACEUTICAL, published 2024).

Common to all, as to test: peptide ELISA, OD 655 nm
A general note: An ELISA detects its analyte on a solid surface through an enzyme-linked reagent.

Assay [1] deals with T1, HER2 peptide p603-622 (amino acids 603 to 622 of human HER2) (human).
T1 construct: Synthetic peptide; also called wild-type HER2 peptide
T1 peptide: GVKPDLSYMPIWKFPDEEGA

Assay [2] has as its target T2, G603A peptide (HER2 603-622 with G603A) (human).
T2 peptide: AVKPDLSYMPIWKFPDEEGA

Assay [3] concerns the target T3, V604A peptide (HER2 603-622 with V604A) (human).
T3 peptide: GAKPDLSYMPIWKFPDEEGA

The target of assay [4] is T4, K605A peptide (HER2 603-622 with K605A) (human).
T4 peptide: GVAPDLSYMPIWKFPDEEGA

Assay [5] deals with T5, P606A peptide (HER2 603-622 with P606A) (human).
T5 peptide: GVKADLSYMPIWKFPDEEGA

In assay [6] the target is T6, D607A peptide (HER2 603-622 with D607A) (human).
T6 peptide: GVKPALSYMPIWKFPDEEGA

Assay [7] has as its target T7, L608A peptide (HER2 603-622 with L608A) (human).
T7 peptide: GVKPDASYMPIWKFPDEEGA

Assay [8] has as its target T8, S609A peptide (HER2 603-622 with S609A) (human).
T8 peptide: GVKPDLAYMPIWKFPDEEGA

Assay [9] addresses T9, Y610A peptide (HER2 603-622 with Y610A) (human).
T9 peptide: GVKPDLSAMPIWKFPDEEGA

Assay [10] has as its target T10, M611A peptide (HER2 603-622 with M611A) (human).
T10 peptide: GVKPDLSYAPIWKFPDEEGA

Assay [11] has as its target T11, P612A peptide (HER2 603-622 with P612A) (human).
T11 peptide: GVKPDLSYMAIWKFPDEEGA

The target in assay [12] is T12, I613A peptide (HER2 603-622 with I613A) (human).
T12 construct: also called 1613A
T12 peptide: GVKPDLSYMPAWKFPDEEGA

In assay [13] the target is T13, W614A peptide (HER2 603-622 with W614A) (human).
T13 peptide: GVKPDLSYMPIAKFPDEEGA

Assay [14] deals with T14, K615A peptide (HER2 603-622 with K615A) (human).
T14 peptide: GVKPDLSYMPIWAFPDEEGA

The target in assay [15] is T15, F616A peptide (HER2 603-622 with F616A) (human).
T15 peptide: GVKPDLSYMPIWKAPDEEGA

The target of assay [16] is T16, P617A peptide (HER2 603-622 with P617A) (human).
T16 peptide: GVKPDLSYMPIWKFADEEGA

The target in assay [17] is T17, D618A peptide (HER2 603-622 with D618A) (human).
T17 peptide: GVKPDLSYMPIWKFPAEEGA

The target of assay [18] is T18, E619A peptide (HER2 603-622 with E619A) (human).
T18 peptide: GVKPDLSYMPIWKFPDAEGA

In assay [19] the target is T19, E620A peptide (HER2 603-622 with E620A) (human).
T19 peptide: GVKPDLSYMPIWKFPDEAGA

Assay [20] has as its target T20, G621A peptide (HER2 603-622 with G621A) (human).
T20 peptide: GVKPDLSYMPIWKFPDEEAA

The target in assay [21] is T21, HER2_604-622C peptide (NH2-VKPDLSYMPIWKFPDEEGAC-COOH) (human).
T21 construct: KLH was added for immunisation, the peptide itself was coated in the screening ELISA
T21 peptide: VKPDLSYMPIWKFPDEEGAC

Assay [22] has as its target T1, HER2 peptide p603-622 (amino acids 603 …).
For assay [23], the target named is T2, G603A peptide (HER2 603-622 with G603A).
Assay [24] deals with T3, V604A peptide (HER2 603-622 with V604A).
The target of assay [25] is T4, K605A peptide (HER2 603-622 with K605A).
The target in assay [26] is T5, P606A peptide (HER2 603-622 with P606A).
For assay [27], the target named is T6, D607A peptide (HER2 603-622 with D607A).
The target of assay [28] is T7, L608A peptide (HER2 603-622 with L608A).
Assay [29] addresses T8, S609A peptide (HER2 603-622 with S609A).
The target of assay [30] is T9, Y610A peptide (HER2 603-622 with Y610A).
For assay [31], the target named is T10, M611A peptide (HER2 603-622 with M611A).
In assay [32] the target is T11, P612A peptide (HER2 603-622 with P612A).
Assay [33] addresses T12, I613A peptide (HER2 603-622 with I613A).
Assay [34] addresses T13, W614A peptide (HER2 603-622 with W614A).
Assay [35] addresses T14, K615A peptide (HER2 603-622 with K615A).
The target in assay [36] is T15, F616A peptide (HER2 603-622 with F616A).
For assay [37], the target named is T16, P617A peptide (HER2 603-622 with P617A).
For assay [38], the target named is T17, D618A peptide (HER2 603-622 with D618A).
For assay [39], the target named is T18, E619A peptide (HER2 603-622 with E619A).
In assay [40] the target is T19, E620A peptide (HER2 603-622 with E620A).
For assay [41], the target named is T20, G621A peptide (HER2 603-622 with G621A).
Assay [42] has as its target T21, HER2_604-622C peptide ….

Read-outs that look alike come from different tables or passages of the source.

B1: H2Mab-280 antibody (antibody, mouse IgG1, kappa, V domains shown)
VH: DVKLVESGGGLVKPGGSLKLSCAASGFTFSSYSMSWVRQTPEKRLEWVAIISSGGSYTFYPDSVKGRFTISRDNAKNTLYLQMSSLKSEDTAMYHCTREAGDYWGQGTTLTVSS
VL: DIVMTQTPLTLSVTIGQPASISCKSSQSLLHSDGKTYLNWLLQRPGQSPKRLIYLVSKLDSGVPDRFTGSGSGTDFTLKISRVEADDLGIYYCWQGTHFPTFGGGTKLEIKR
As to B1, the binding result in assay [1], in [2], in assay [3], in [4], in [5] and in assay [6] was “binds” in each case. Further, the binding result in [7], in assay [8], in assay [9], in assay [10], in [11] and in assay [12] was “binds” throughout. Moreover, the binding result was “no binding (tested: 10 ug/ml)” in assay [13]; “binds” in assay [14]; “binds” in assay [15]; “binds” in assay [16]; “binds” in assay [17]; “binds” in [18]. Moreover, the binding result in assay [19], in assay [20] and in assay [21] was “binds” in each case.

B2: H2Mab-295 antibody (antibody, mouse IgG1, kappa, V domains shown)
VH: EVQLQQSGPELVKPGASRKISCKASGYSFTGYTMNWVKKSHGKNLEWIGLINPYNGGTRYNQKFKGKATLTVDKSSSTAYMELLSLTSEDSAVYYCVKEPSDYWGQGTTLTVSS
VL: DVVMTQTPLSLPVSLGDQASISCRSSQSLVHSNGNTYLHWYLQKPGQSPKLLIYKVSKRFSGVPDRFSGCGSGTDFTLKISRLEAEDLGVYFCSQSSHVPPTFGGGTKLEIKR
On to B2, for which the binding result in assay [22], in assay [23], in assay [24], in [25], in assay [26] and in [27] was “binds” throughout. In addition, the binding result in assay [28], in assay [29], in assay [30], in assay [31], in [32] and in assay [33] was “binds” in each case. The binding result in [34], in assay [35], in assay [36], in [37], in assay [38] and in assay [39] was “binds” throughout. Besides, the binding result in assay [40], in assay [41] and in assay [42] was “binds” each time.

B3: H2Mab-282 antibody (antibody, mouse IgG2a, kappa, V domains shown)
VH: QVQLQQSGAELSRPGASVKMSCKAAGYTFSSYMIHWVKQRPGQGLEWIGYINPSSGYSNYNQKFKDKATLTADKSSSTAYMQLSSLTSEDSAVYYCAFYDYDGDWGQGTLVTVSA
VL: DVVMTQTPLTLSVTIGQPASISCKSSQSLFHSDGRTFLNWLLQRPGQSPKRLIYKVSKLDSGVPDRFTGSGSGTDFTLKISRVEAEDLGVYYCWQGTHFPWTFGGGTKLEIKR
For the molecule B3, the binding result in assay [1], in assay [2], in assay [3], in assay [4], in [5] and in assay [6] was “binds” each time. Moreover, the binding result in assay [7], in assay [8], in assay [9], in assay [10], in [11] and in assay [12] was “binds” each time. Further, the binding result is given as “binds” in assay [13]; “binds” in assay [14]; “no binding (tested: 10 ug/ml)” in assay [15]; “binds” in [16]; “binds” in assay [17]; “binds” in [18]. In addition, the binding result in assay [19], in assay [20] and in assay [21] was “binds” each time.
